Patent US8669352 (PANGENETICS B V, dated 2014)
“And” between values parts separate entries of the source, which are not always exact repeats. Identical values can stand only once.

How the values were obtained:
human CD40 [1] = target: T1, human CD40 (human, UniProt P25942 21-277); test: FACS on JY cells expressing CD40; 100 µl PER.C6 transient supernatant harvested after 48 h (antibody concentration not equalised), FITC anti-human IgG 1/100; in the same figure Mock Control Mean 11.25 / Median 8.74, FACS control (secondary only) Mean 10.18 / Median 8.74
T1 construct: whole, on cells; also called huCD40; CD40 expressed on JY cells
T1 sequence (P25942 21-277): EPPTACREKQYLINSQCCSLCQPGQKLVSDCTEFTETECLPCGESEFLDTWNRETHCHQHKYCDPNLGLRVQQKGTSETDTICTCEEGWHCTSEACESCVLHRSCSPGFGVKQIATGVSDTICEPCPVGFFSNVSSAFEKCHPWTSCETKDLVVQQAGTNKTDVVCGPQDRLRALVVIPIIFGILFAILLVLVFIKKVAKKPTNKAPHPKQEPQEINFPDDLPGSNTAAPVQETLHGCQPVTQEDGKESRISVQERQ
Description: FIG. 8. FACS analysis using JY cells. PER.C6 cell supernatant of the transient expressed variants (Q5E, K13A, E16Q, T17S, I29L, 37V, P45L, M48L, STS60NSA, T68S, S79F, and T108S) of 5D12 was harvested after 48 h. As control also supernatant was harvested of cells transfected with either ch5D12 or D15D12 together with supernatant from mock (no plasmid) transfected cells. Binding of expressed antibodies was tested by FACS using JY cells together with anti-human FITC labelled secondary antibody (1/100 diluted). As FACS control JY cells were incubated with only the secondary FITC labelled antibody.
By FACS analysis the antigen specificity of the expressed antibodies was analyzed. JY cells are EBV transformed human B-cells, which express CD40. Briefly, 100,000 JY cells were incubated with 100 µl supernatant from the transient expression experiment at 4° C. for 20 minutes. To remove unbound antibody cells were washed with PBS containing 0.05% NaAzide and 1% BSA. As secondary antibody 1/100 diluted FITC labeled anti-human IgG (Jackson 109-095-127) was used. After 20 minutes incubation at 4° C. cells were washed. Finally cell samples were measured on a FACScan (BD).

human CD40 [2] = target: T1, human CD40; test: flow cytometry on JY cells; competitor 1 µg/mL ch5D12 (PG100)-PE; n=4
Description: (§1) Competitive Inhibition of ch5D12 (PG100)-PE and PG102-PE Binding to JY Cells Expressing Human CD40 Using Unlabelled Anti-CD40 Antibody Materials and Methods JY cells (Epstein—Barr virus-transformed human B lymphoblastoid cell line) were grown in Iscove's Modified Dulbecco's Medium (IMDM) containing 10% heat-inactivated foetal calf serum (FCS), 2 mM L-glutamine and 50 μg/mL gentamycin in an air-humidified atmosphere containing 5% CO_2, at 37° C. Cells were harvested on the day of flow cytometric measurements.
(§2) Unlabelled ch5D12 (PG100) (Batch 4) and PG102 (Batch 2) antibodies were used in these experiments. Both antibodies were also used in PE-labelled form for direct determination of binding to JY cells by flow cytometry. Antibodies were custom-labelled with PE by AbD Serotec (Oxford, UK). For each FACS analysis the following protocol was used. JY cells were harvested from cell culture and counted. […] Cells were washed followed by flow cytometric analysis in which the MFI at every concentration was determined using a FACScan flow cyometer (Becton & Dickinson). Five thousand events/sample were measured and analyzed using CellQuest® software (Becton & Dickinson).

[3] = target: T2, huCD40-muIg (Ancell, catalogue number 504-020) (human, UniProt P25942 21-193); test: ELISA on coated human CD40-Fc; half-maximal binding concentration
T2 construct: also called CD40-Fc; human CD40-Fc; not shown: murine Ig part
T2 sequence (P25942 21-193): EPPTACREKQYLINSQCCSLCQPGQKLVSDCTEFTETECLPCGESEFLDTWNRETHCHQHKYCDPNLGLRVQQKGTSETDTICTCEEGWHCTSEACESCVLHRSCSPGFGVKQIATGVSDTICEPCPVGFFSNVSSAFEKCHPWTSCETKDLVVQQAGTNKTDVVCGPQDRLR
Description: (§3) Plates were washed 3 times with 200 μL/well wash buffer (0.05% Tween-20 in PBS). Subsequently, plates were blocked with 200 μL/well blocking buffer (5% BSA Fraction V [Roche, catalogue number 735094] in wash buffer) and incubated for 1 h at 37° C. (humid environment). Plates were washed 3 times with wash buffer. Test antibodies (ch5D12 (PG100), PG102, and negative control chimaeric anti-huCD86 antibody chFUN-1) were diluted in the range 0-1200 ng/mL in blocking buffer and transferred to assay plates in a final volume of 100 μL/well, followed by incubation for 1 h at 37° C. (humid environment). Plates were washed 3 times with wash buffer followed by addition of 100 μl/well goat anti-human kappa-AP detection antibody (Southern Biotech Associates catalogue number 2060-0) diluted 1:1000 in blocking buffer. Plates were incubated for 1 h at 37° C. in a humid environment before washing 3 times with wash buffer and a further single wash with PBS.

[4] = target: T3, Recombinant human CD40 extracellular domain fused to human IgG1-Fc domain (huCD40-Fc; R&D Systems 149-CD-50) (human, UniProt P25942 21-193); test: SPR (Biacore 3000), immobilised huCD40-Fc, bivalent binding (1:2) model, ka1
T3 construct: extracellular domain; Bought reagent; also called human CD40-Fc; not shown: human IgG1-Fc domain
T3 sequence (P25942 21-193): as above
Description: (§4) The kinetics of ch5D12 (PG100) and PG102 (I29L variant) binding to human CD40 were compared by surface plasmon resonance at a constant temperature of 25.0° C., using a Biacore 3000 instrument. Recombinant human CD40 extracellular domain fused to human IgG1-Fc domain (huCD40-Fc; R&D Systems catalogue number 149-CD-50) was used as the target antigen in these experiments. HuCD40-Fc (1 µg/mL in 10 mM acetate buffer, pH 5.0) was coupled via the amine groups of Lys residues to carbodiimide-activated Biacore CM5 chips, resulting in an antigen immobilization level of 127.4 RU. For kinetic analyses, dilution series of ch5D12 (PG100) and PG102 (range 10.0 µg/mL to 0.313 µg/mL) were prepared in Biacore Running Buffer (HEPES-buffered saline containing EDTA and surfactant; HBS-EP). Kinetic analyses were performed at a flow rate of 30 µL/min. Samples were allowed to bind for 4 min and to dissociate for 5 min, at the same flow rate. The chip surface was then regenerated for 30 seconds using 30 mM NaOH and a baseline re-established in HBS-EP for 2.5 min before injection of the next sample. […]
(§5) BIAcore control software (Version 3.2) was used for data collection and BIAevaluation software (Version 4.1) was used for analysis of kinetic data. Binding parameters were calculated using two different models of molecular interaction: a bivalent analyte model and Langmuir 1:1 binding model.

[5] = target: T3, Recombinant human CD40 extracellular …; test: SPR (Biacore 3000), immobilised huCD40-Fc, Langmuir (1:1) model, kd
Description: as §4, §5

[6] = target: T3, Recombinant human CD40 extracellular …; test: SPR (Biacore 3000), immobilised huCD40-Fc, Langmuir (1:1) model
Description: as §4, §5

human CD40 [7] = target: T1, human CD40; test: cell-based or functional assay
human CD40 [8] = target: T1, human CD40; test: flow cytometry on JY cells; competitor 1 µg/mL PG102-PE; n=4
Description: as §1, §2

human CD40 [9] = target: T1, human CD40; test: flow cytometry competition on JY cells against 1 µg/mL PE-labelled ch5D12 (PG100) or PG102; range told of both antibodies
Description: as §1, §2

[10] = target: T3, Recombinant human CD40 extracellular …; test: SPR (Biacore 3000), immobilised huCD40-Fc, bivalent binding (1:2) model
Description: as §4, §5

[11] = target: T3, Recombinant human CD40 extracellular …; test: SPR (Biacore 3000), immobilised huCD40-Fc, Langmuir (1:1) model, ka
Description: as §4, §5

[12] = target: T3, Recombinant human CD40 extracellular …; test: SPR (Biacore 3000), immobilised huCD40-Fc, bivalent binding (1:2) model, kd1
Description: as §4, §5

[13] = target: T2, huCD40-muIg (Ancell, catalogue number …); test: ELISA on coated human CD40-Fc (huCD40-muIg per methods); n=4
Description: as §3, with “Plates were incubated for 1 h at 37° C. in a humid environment before washing 3 times with wash buffer and a further single wash with PBS.” left out
PNP substrate was prepared by adding 1 tablet p-Nitrophenyl Phosphate tablets (Sigma, catalogue number N-2765) in 15 mL PNP substrate buffer (12.1 g Tris, 5.84 g NaCl, 1.02 g MgCl_2.6H_2O in 1 L H_2O (adjusted to pH 9.6 with HCl). PNP substrate was added to assay plates at 100 μL/well. Plates were incubated for several minutes (max 30 min) at 37° C. to allow colour development before the reaction was stopped by addition of 3M NaOH. Colour intensity was determined at 405 nm using a micro plate reader (Biorad, model 550).

[14] = target: T3, Recombinant human CD40 extracellular …; test: SPR (Biacore 3000), immobilised huCD40-Fc, bivalent analyte model; the text value differs from the table's 5.29 × 10^-9 M; bivalent analyte model, not Langmuir
Description: as §4, §5

Row | Binder | Mean (FL1-H) (human CD40 [1]) | Median (FL1-H) (human CD40 [1]) | -log IC50 (human CD40 [2]) | EC50 [3] [µg/mL] | kon [4] [M⁻¹ s⁻¹] | koff [5] [s⁻¹] | Kd [6] [nM] | -log IC50 for inhibition of IL-8 release by IFN-gamma-pulsed THP-1 cells co-cultured with Jurkat 39.8/50 cells (human CD40 [7]) | -log IC50 (human CD40 [8]) | IC50 (human CD40 [9]) | Kd [10] [nM] | kon [11] [M⁻¹ s⁻¹] | koff [12] [s⁻¹] | -log half-maximal binding concentration [13] | Kd [14] [nM]
1 | PG102 (I29L variant) (antibody, human IgG4, kappa, V domains shown, Human IgG4/kappa; also called 29L-37I) VH: QVKLQESGPGLVKPSETLSITCTVSGFSLSRYSVYWIRQPPGKGPEWMGMMWGGGSTDYSTSLKSRLTISKDTSKSQVSLKMNSLRTDDTAMYYCVRTDGDYWGQGTTVTVSS VL: ELQLTQSPLSLPVTLGQPASISCRSSQSLANSNGNTYLHWYLQRPGQSPRLLIYKVSNRFSGVPDRFSGSGSGTDFTLKISRVEAEDVGVYYCSQSTHVPWTFGGGTKLEIKR | 108 | 91.8 | 7.63 -log10 of g/mL (per p-0205: ~20-30 ng/mL) | ~0.03 | 782000 | 0.000596 | 0.237 | 8.42 -log10 (unit not printed) | 7.65 -log10 of g/mL (per p-0205: ~20-30 ng/mL) | 0.02 µg/mL to 0.03 µg/mL (2×) and 0.13 nM to 0.2 nM (2×) | 5.41 | 2.51e+06 | 0.00247 |  | 
2 | ch5D12 (PG100) (antibody, V domains shown, also called chimeric 5D12) VH: QVKLEESGPGLVAPSQSLSITCTVSGFSLSRYSVYWVRQPPGKGLEWLGMMWGGGSTDYNSALKSRLSISKDTSKSQVFLKMNSLRTDDTAMYYCVRTDGDYWGQGTSVTVSS VL: ELQLTQSPLSLPVSLGDQASISCRSSQSLVNSNGNTYLHWYLQKPGQSPKLLIYKVSNRFSGVPDRFSGSGSGTDFTLKISRVEAEDLGVYFCSQSTHVPWTFGGGTKLEIKR |  |  | 7.5 -log10 of g/mL (per p-0205: ~20-30 ng/mL) | ~0.03 | 641000 | 0.000507 | 0.271 | 8.28 -log10 (unit not printed) | 7.54 -log10 of g/mL (per p-0205: ~20-30 ng/mL) | 0.02 µg/mL to 0.03 µg/mL (2×) and 0.13 nM to 0.2 nM (2×) | 5.29 | 1.88e+06 | 0.0016 | 7.54 -log10 of g/ml (per caption: 7.45 ~ 35 ng/ml) | 5.25
